The assay concerns the target MBP-NES^MVM. Put plainly: MST.

Consider “yCRM1a C152S/C539T (from UniProt P30822 1-1055) (receptor)”, for which the fold weaker affinity than the C152/C539/C1022 triple mutant came to 5 fold.

The values above are taken from publication doi:10.1101/2020.08.05.237479.
